Measured values from patent US20220324969A1 (MYTHIC THERAPEUTICS, published 2022).

B1: MYT1340 (antibody, V domains shown)
VH: QVQLVQSGAEVKKPGASVKVSCKASGYTFTHYDINWVRQAPGQGLEWIGWIYPGDGSTKYNEKFKAKATLTADTSTSTAYMELRSLRSDDTAVYYCASGYEDAMDYWGQGTTVTVSS
VL: DIQMTQSPSSLSASVGDRVTINCKASQDINSYLSWFQQKPGKAPKTLIYRANRLVDGVPSRFSGSGSGQDYTLTISSLQPEDFATYYCLQYDEFPLTFGGGTKVEIK
notes: IgG; vadastuximab VH variant #6 (N31H)
B2: MYT1349 (antibody, V domains shown)
VH: QVQLVQSGAEVKKPGASVKVSCKASGYTFTNYDINWVRQAPGQGLEWIGWIYPHDGSTKYNEKFKAKATLTADTSTSTAYMELRSLRSDDTAVYYCASGYEDAMDYWGQGTTVTVSS
VL: DIQMTQSPSSLSASVGDRVTINCKASQDINSYLSWFQQKPGKAPKTLIYRANRLVDGVPSRFSGSGSGQDYTLTISSLQPEDFATYYCLQYDEFPLTFGGGTKVEIK
notes: IgG; vadastuximab VH variant #15 (G54H)
B3: MYT1347 (antibody, V domains shown)
VH: QVQLVQSGAEVKKPGASVKVSCKASGYTFTNYDINWVRQAPGQGLEWIGWIHPGDGSTKYNEKFKAKATLTADTSTSTAYMELRSLRSDDTAVYYCASGYEDAMDYWGQGTTVTVSS
VL: DIQMTQSPSSLSASVGDRVTINCKASQDINSYLSWFQQKPGKAPKTLIYRANRLVDGVPSRFSGSGSGQDYTLTISSLQPEDFATYYCLQYDEFPLTFGGGTKVEIK
notes: IgG; vadastuximab VH variant #13 (Y52H)
B4: MYT1351 (antibody, V domains shown)
VH: QVQLVQSGAEVKKPGASVKVSCKASGYTFTNYDINWVRQAPGQGLEWIGWIYPGDHSTKYNEKFKAKATLTADTSTSTAYMELRSLRSDDTAVYYCASGYEDAMDYWGQGTTVTVSS
VL: DIQMTQSPSSLSASVGDRVTINCKASQDINSYLSWFQQKPGKAPKTLIYRANRLVDGVPSRFSGSGSGQDYTLTISSLQPEDFATYYCLQYDEFPLTFGGGTKVEIK
notes: IgG; vadastuximab VH variant #17 (G56H)
B5: MYT1343 (antibody, V domains shown)
VH: QVQLVQSGAEVKKPGASVKVSCKASGYTFTNYDHNWVRQAPGQGLEWIGWIYPGDGSTKYNEKFKAKATLTADTSTSTAYMELRSLRSDDTAVYYCASGYEDAMDYWGQGTTVTVSS
VL: DIQMTQSPSSLSASVGDRVTINCKASQDINSYLSWFQQKPGKAPKTLIYRANRLVDGVPSRFSGSGSGQDYTLTISSLQPEDFATYYCLQYDEFPLTFGGGTKVEIK
notes: IgG; vadastuximab VH variant #9 (I34H)
B6: MYT1341 (antibody, V domains shown)
VH: QVQLVQSGAEVKKPGASVKVSCKASGYTFTNHDINWVRQAPGQGLEWIGWIYPGDGSTKYNEKFKAKATLTADTSTSTAYMELRSLRSDDTAVYYCASGYEDAMDYWGQGTTVTVSS
VL: DIQMTQSPSSLSASVGDRVTINCKASQDINSYLSWFQQKPGKAPKTLIYRANRLVDGVPSRFSGSGSGQDYTLTISSLQPEDFATYYCLQYDEFPLTFGGGTKVEIK
notes: IgG; vadastuximab VH variant #7 (Y32H)
B7: MYT1350 (antibody, V domains shown)
VH: QVQLVQSGAEVKKPGASVKVSCKASGYTFTNYDINWVRQAPGQGLEWIGWIYPGHGSTKYNEKFKAKATLTADTSTSTAYMELRSLRSDDTAVYYCASGYEDAMDYWGQGTTVTVSS
VL: DIQMTQSPSSLSASVGDRVTINCKASQDINSYLSWFQQKPGKAPKTLIYRANRLVDGVPSRFSGSGSGQDYTLTISSLQPEDFATYYCLQYDEFPLTFGGGTKVEIK
notes: IgG; vadastuximab VH variant #16 (D55H)
B8: MYT1356 (antibody, V domains shown)
VH: QVQLVQSGAEVKKPGASVKVSCKASGYTFTNYDINWVRQAPGQGLEWIGWIYPGDGSTKYHEKFKAKATLTADTSTSTAYMELRSLRSDDTAVYYCASGYEDAMDYWGQGTTVTVSS
VL: DIQMTQSPSSLSASVGDRVTINCKASQDINSYLSWFQQKPGKAPKTLIYRANRLVDGVPSRFSGSGSGQDYTLTISSLQPEDFATYYCLQYDEFPLTFGGGTKVEIK
notes: IgG; vadastuximab VH variant #22 (N61H)
B9: MYT1358 (antibody, V domains shown)
VH: QVQLVQSGAEVKKPGASVKVSCKASGYTFTNYDINWVRQAPGQGLEWIGWIYPGDGSTKYNEHFKAKATLTADTSTSTAYMELRSLRSDDTAVYYCASGYEDAMDYWGQGTTVTVSS
VL: DIQMTQSPSSLSASVGDRVTINCKASQDINSYLSWFQQKPGKAPKTLIYRANRLVDGVPSRFSGSGSGQDYTLTISSLQPEDFATYYCLQYDEFPLTFGGGTKVEIK
notes: IgG; vadastuximab VH variant #24 (K63H)
B10: MYT1355 (antibody, V domains shown)
VH: QVQLVQSGAEVKKPGASVKVSCKASGYTFTNYDINWVRQAPGQGLEWIGWIYPGDGSTKHNEKFKAKATLTADTSTSTAYMELRSLRSDDTAVYYCASGYEDAMDYWGQGTTVTVSS
VL: DIQMTQSPSSLSASVGDRVTINCKASQDINSYLSWFQQKPGKAPKTLIYRANRLVDGVPSRFSGSGSGQDYTLTISSLQPEDFATYYCLQYDEFPLTFGGGTKVEIK
notes: IgG; vadastuximab VH variant #21 (Y60H)
B11: MYT1357 (antibody, V domains shown)
VH: QVQLVQSGAEVKKPGASVKVSCKASGYTFTNYDINWVRQAPGQGLEWIGWIYPGDGSTKYNHKFKAKATLTADTSTSTAYMELRSLRSDDTAVYYCASGYEDAMDYWGQGTTVTVSS
VL: DIQMTQSPSSLSASVGDRVTINCKASQDINSYLSWFQQKPGKAPKTLIYRANRLVDGVPSRFSGSGSGQDYTLTISSLQPEDFATYYCLQYDEFPLTFGGGTKVEIK
notes: IgG; vadastuximab VH variant #23 (E62H)
B12: MYT1360 (antibody, V domains shown)
VH: QVQLVQSGAEVKKPGASVKVSCKASGYTFTNYDINWVRQAPGQGLEWIGWIYPGDGSTKYNEKFHAKATLTADTSTSTAYMELRSLRSDDTAVYYCASGYEDAMDYWGQGTTVTVSS
VL: DIQMTQSPSSLSASVGDRVTINCKASQDINSYLSWFQQKPGKAPKTLIYRANRLVDGVPSRFSGSGSGQDYTLTISSLQPEDFATYYCLQYDEFPLTFGGGTKVEIK
notes: IgG; vadastuximab VH variant #26 (K65H)
B13: MYT1352 (antibody, V domains shown)
VH: QVQLVQSGAEVKKPGASVKVSCKASGYTFTNYDINWVRQAPGQGLEWIGWIYPGDGHTKYNEKFKAKATLTADTSTSTAYMELRSLRSDDTAVYYCASGYEDAMDYWGQGTTVTVSS
VL: DIQMTQSPSSLSASVGDRVTINCKASQDINSYLSWFQQKPGKAPKTLIYRANRLVDGVPSRFSGSGSGQDYTLTISSLQPEDFATYYCLQYDEFPLTFGGGTKVEIK
notes: IgG; vadastuximab VH variant #18 (S57H)
B14: MYT1359 (antibody, V domains shown)
VH: QVQLVQSGAEVKKPGASVKVSCKASGYTFTNYDINWVRQAPGQGLEWIGWIYPGDGSTKYNEKHKAKATLTADTSTSTAYMELRSLRSDDTAVYYCASGYEDAMDYWGQGTTVTVSS
VL: DIQMTQSPSSLSASVGDRVTINCKASQDINSYLSWFQQKPGKAPKTLIYRANRLVDGVPSRFSGSGSGQDYTLTISSLQPEDFATYYCLQYDEFPLTFGGGTKVEIK
notes: IgG; vadastuximab VH variant #25 (F64H)
B15: MYT1361 (antibody, V domains shown)
VH: QVQLVQSGAEVKKPGASVKVSCKASGYTFTNYDINWVRQAPGQGLEWIGWIYPGDGSTKYNEKFKHKATLTADTSTSTAYMELRSLRSDDTAVYYCASGYEDAMDYWGQGTTVTVSS
VL: DIQMTQSPSSLSASVGDRVTINCKASQDINSYLSWFQQKPGKAPKTLIYRANRLVDGVPSRFSGSGSGQDYTLTISSLQPEDFATYYCLQYDEFPLTFGGGTKVEIK
notes: IgG; vadastuximab VH variant #27 (A66H)
B16: MYT1353 (antibody, V domains shown)
VH: QVQLVQSGAEVKKPGASVKVSCKASGYTFTNYDINWVRQAPGQGLEWIGWIYPGDGSHKYNEKFKAKATLTADTSTSTAYMELRSLRSDDTAVYYCASGYEDAMDYWGQGTTVTVSS
VL: DIQMTQSPSSLSASVGDRVTINCKASQDINSYLSWFQQKPGKAPKTLIYRANRLVDGVPSRFSGSGSGQDYTLTISSLQPEDFATYYCLQYDEFPLTFGGGTKVEIK
notes: IgG; vadastuximab VH variant #19 (T58H)
B17: MYT1346 (antibody, V domains shown)
VH: QVQLVQSGAEVKKPGASVKVSCKASGYTFTNYDINWVRQAPGQGLEWIGWHYPGDGSTKYNEKFKAKATLTADTSTSTAYMELRSLRSDDTAVYYCASGYEDAMDYWGQGTTVTVSS
VL: DIQMTQSPSSLSASVGDRVTINCKASQDINSYLSWFQQKPGKAPKTLIYRANRLVDGVPSRFSGSGSGQDYTLTISSLQPEDFATYYCLQYDEFPLTFGGGTKVEIK
notes: IgG; vadastuximab VH variant #12 (I51H)
B18: MYT1354 (antibody, V domains shown)
VH: QVQLVQSGAEVKKPGASVKVSCKASGYTFTNYDINWVRQAPGQGLEWIGWIYPGDGSTHYNEKFKAKATLTADTSTSTAYMELRSLRSDDTAVYYCASGYEDAMDYWGQGTTVTVSS
VL: DIQMTQSPSSLSASVGDRVTINCKASQDINSYLSWFQQKPGKAPKTLIYRANRLVDGVPSRFSGSGSGQDYTLTISSLQPEDFATYYCLQYDEFPLTFGGGTKVEIK
notes: IgG; vadastuximab VH variant #20 (K59H)
B19: MYT1363 (antibody, V domains shown)
VH: QVQLVQSGAEVKKPGASVKVSCKASGYTFTNYDINWVRQAPGQGLEWIGWIYPGDGSTKYNEKFKAKATLTADTSTSTAYMELRSLRSDDTAVYYCAHGYEDAMDYWGQGTTVTVSS
VL: DIQMTQSPSSLSASVGDRVTINCKASQDINSYLSWFQQKPGKAPKTLIYRANRLVDGVPSRFSGSGSGQDYTLTISSLQPEDFATYYCLQYDEFPLTFGGGTKVEIK
notes: IgG; vadastuximab VH variant #29 (S98H)
B20: MYT1365 (antibody, V domains shown)
VH: QVQLVQSGAEVKKPGASVKVSCKASGYTFTNYDINWVRQAPGQGLEWIGWIYPGDGSTKYNEKFKAKATLTADTSTSTAYMELRSLRSDDTAVYYCASGHEDAMDYWGQGTTVTVSS
VL: DIQMTQSPSSLSASVGDRVTINCKASQDINSYLSWFQQKPGKAPKTLIYRANRLVDGVPSRFSGSGSGQDYTLTISSLQPEDFATYYCLQYDEFPLTFGGGTKVEIK
notes: IgG; vadastuximab VH variant #31 (Y100H)
B21: MYT1348 (antibody, V domains shown)
VH: QVQLVQSGAEVKKPGASVKVSCKASGYTFTNYDINWVRQAPGQGLEWIGWIYHGDGSTKYNEKFKAKATLTADTSTSTAYMELRSLRSDDTAVYYCASGYEDAMDYWGQGTTVTVSS
VL: DIQMTQSPSSLSASVGDRVTINCKASQDINSYLSWFQQKPGKAPKTLIYRANRLVDGVPSRFSGSGSGQDYTLTISSLQPEDFATYYCLQYDEFPLTFGGGTKVEIK
notes: IgG; vadastuximab VH variant #14 (P53H)
B22: MYT1345 (antibody, V domains shown)
VH: QVQLVQSGAEVKKPGASVKVSCKASGYTFTNYDINWVRQAPGQGLEWIGHIYPGDGSTKYNEKFKAKATLTADTSTSTAYMELRSLRSDDTAVYYCASGYEDAMDYWGQGTTVTVSS
VL: DIQMTQSPSSLSASVGDRVTINCKASQDINSYLSWFQQKPGKAPKTLIYRANRLVDGVPSRFSGSGSGQDYTLTISSLQPEDFATYYCLQYDEFPLTFGGGTKVEIK
notes: IgG; vadastuximab VH variant #11 (W50H)

target: CD33 (Sino Biological, Cat #12238-H08H) (UniProt P20138 18-259); experiment: BLI, IgG captured on anti-human Fc sensor, 50 nM CD33, pH 7.4 vs pH 5.4
Sequence (P20138 18-259 limits assumed): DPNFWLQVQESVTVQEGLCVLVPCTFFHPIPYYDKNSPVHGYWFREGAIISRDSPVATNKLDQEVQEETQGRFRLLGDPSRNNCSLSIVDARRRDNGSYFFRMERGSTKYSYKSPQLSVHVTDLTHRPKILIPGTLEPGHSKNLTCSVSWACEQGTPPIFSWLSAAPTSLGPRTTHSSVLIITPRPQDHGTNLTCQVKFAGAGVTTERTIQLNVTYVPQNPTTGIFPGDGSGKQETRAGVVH

Binding result, binds:
B1
B2
B3
B4
B5
B6
B7
B8
B9
B10
B11
B12
B13
B14
B15
B16
B17
B18
B19
B20
B21
B22
